Earlier results in paper PMC5067215.

Target: CD74 (Homo sapiens) (UniProt P04233)
Chain of UniProt P04233 (P04233 73-296): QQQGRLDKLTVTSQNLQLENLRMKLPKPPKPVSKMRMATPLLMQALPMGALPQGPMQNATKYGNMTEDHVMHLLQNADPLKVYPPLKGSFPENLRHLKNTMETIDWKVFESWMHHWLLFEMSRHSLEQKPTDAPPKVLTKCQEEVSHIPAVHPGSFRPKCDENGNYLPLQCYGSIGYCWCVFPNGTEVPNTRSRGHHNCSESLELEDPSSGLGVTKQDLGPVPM

- Kd: 5.42 nM
Substance: D-DT (from UniProt P30046)
